Measurements as given in US20230210946A1, “TREATMENT OF CANCER” (Immutep S.A.S., priority 2020, published 2023).

Legend:
Format in all cases: in vivo, human
[1] = AIPAC: quality of life (QoL); settings: at week 25
Description: (§1) Secondary Outcome Measures: • 1. […] Assessment of the overall survival (OS) • 3. […] Evaluation of the time to next treatment • 6. Evaluation of objective response rate (ORR) • 7. Evaluation of stable disease

[2] = Safety of s.c. IMP321 doses
[3] = test system: HER2 negative hormone receptor-positive metastatic breast cancer; assay: AIPAC Phase IIb study: progression-free survival (PFS); settings: investigator read; for PFS absolute gain / PFS Hazard Ratio: vs paclitaxel + placebo
Protocol: (§2) A Phase IIb clinical study was carried out to investigate the safety and efficacy of the active immunotherapy IMP321 in combination (adjunctive) with paclitaxel chemotherapy in patients with HER2 negative hormone receptor-positive metastatic breast cancer.
(§3) A multicentre, placebo-controlled, double-blind, 1:1 randomised Phase IIb study in female HER2 negative hormone receptor-positive metastatic breast cancer patients was conducted. The study comprised two stages: • stage 1 which was an open-label, safety run-in stage consisting of cohorts 1 and 2 to confirm the recommended Phase II dose (RPTD) of IMP321 in combination with paclitaxel; and • stage 2 which was a placebo-controlled, double-blind randomisation stage, paclitaxel+IMP321 at the RPTD compared to paclitaxel+placebo.
(§4) Paclitaxel+IMP321 at the RPTD of 30 mg (114 patients):
(§5) The chemo-immunotherapy phase consisted of 6 cycles of 4 weeks. Patients received weekly paclitaxel at Days 1, 8 and 15 with adjunctive treatment of study agent (IMP321) on Days 2 and 16 of each 4-week cycle. After completion of the 6-cycle chemo-immunotherapy phase, responding or stable patients received study agent (IMP321) every 4 weeks during the maintenance phase for an additional period of up to 12 injections.
(§6) Active Comparator: Paclitaxel+Placebo (112 patients):
as §5, with “(placebo)” for “(IMP321)”
Primary Outcome Measures: • 1. Stage 1 to determine the recommended phase two dose (RPTD) for the randomised phase • 2. Assessment of Progression-Free Survival (PFS)

[4] = test system: HER2 negative hormone receptor-positive metastatic breast cancer; assay: AIPAC Phase IIb study: overall survival (OS)
Protocol: as §2, §3, §4, §5, §6
as §5, with “(placebo)” for “(IMP321)”
as §1

[5] = test system: HER2 negative hormone receptor-positive metastatic breast cancer; assay: AIPAC Phase IIb study: best overall response acc. to RECIST 1.1 by BICR (ORR, DCR); settings: entire patient population
Protocol: as §2, §3, §4, §5, §6
The chemo-immunotherapy phase consisted of 6 cycles of 4 weeks. […]

[6] = Pharmacokinetics of s.c. IMP321 in metastatic renal cell cancer patients

B1: IMP321: recombinant soluble human LAG-3Ig fusion protein, 160-kDa dimer: extracellular domain of hLAG-3 fused to the human IgG1 Fc (protein)
chain: LQPGAEVPVVWAQEGAPAQLPCSPTIPLQDLSLLRRAGVTWQHQPDSGPPAAAPGHPLAPGPHPAAPSSWGPRPRRYTVLSVGPGGLRSGRLPLQPRVQLDERGRQRGDFSLWLRPARRADAGEYRAAVHLRDRALSCRLRLRLGQASMTASPPGSLRASDWVILNCSFSRPDRPASVHWFRNRGQGRVPVRESPHHHLAESFLFLPQVSPMDSGPWGCILTYRDGFNVSIMYNLTVLGLEPPTPLTVYAGAGSRVGLPCRLPAGVGTRSFLTAKWTPPGGGPDLLVTGDNGDFTLRLEDVSQAQAGTYTCHIHLQEQQLNATVTLAIITVTPKSFGSPGSLGKLLCEVTPVSGQERFVWSSLDTPSQRSFSGPWLEAQEAQLLSQPWQCQLYQGERLLGAAVYFTELSSPG
modifications: left off: small tags and cut ends; a dimerising Fc or GST
notes: recombinant soluble human LAG-3Ig fusion protein, 160-kDa dimer: extracellular domain of hLAG-3 fused to the human IgG1 Fc
[1]
  deterioration in Quality of Life (QoL): not observed
[2]; doses of 6-30 mg per s.c. injection
  safety: safe
[2]; to date
  dose limiting toxicity: No dose limiting toxicity has been observed
[3]; Luminal B type
  PFS median: 7.2 months
  PFS absolute gain: +1.7 months
[3]; age < 65 years
  Median PFS: 7.2 months
  PFS absolute gain: +1.7 months
[3]; low (<0.25 × 10^9/L) monocytes at baseline
  PFS median: 7.5 months
[3]; low monocytes at baseline
  PFS absolute gain: +2.3 months
[3]; with prior CDK4/6 therapy
  Median PFS: 5.6 months
  PFS Hazard Ratio: HR 1.02
  PFS absolute gain: −1.1 months
[3]; without prior taxane therapy
  Median PFS: 7.2 months
  PFS Hazard Ratio: HR 0.88
  PFS absolute gain: +1.7 months
[4]; Luminal B type, investigator read
  Median OS: 16.3 months
[4]; Luminal B type, investigator read, vs paclitaxel + placebo
  OS absolute gain: +3.8 months
[4]; age < 65 years, investigator read
  Median OS: 21.9 months
[4]; age < 65 years, investigator read, vs paclitaxel + placebo
  OS absolute gain: +7.1 months
[4]; entire patient population, investigator read, vs paclitaxel + placebo
  OS Hazard Ratio [95% CI]: 0.83
[4]; entire patient population, vs paclitaxel + placebo
  gain in median OS: 2.7 months
[4]; low (<0.25 × 10^9/L) monocytes at baseline, investigator read
  Median OS: 22.4 months
[4]; low monocytes at baseline, investigator read, vs paclitaxel + placebo
  OS absolute gain: +9.4 months
[4]; with prior CDK4/6 therapy, investigator read
  Median OS: 20.2 months
[4]; with prior CDK4/6 therapy, investigator read, vs paclitaxel + placebo
  OS Hazard Ratio: HR 0.84
[4]; without prior taxane therapy, investigator read
  Median OS: 21.4 months
[4]; without prior taxane therapy, investigator read, vs paclitaxel + placebo
  OS Hazard Ratio: HR 0.69
[5]
  Progressive disease: fewer patients with immediate progression
[6]; doses of 6-30 mg per s.c. injection, metastatic renal cell cancer patients
  systemic exposure: acceptable systemic exposure
[6]; for at least 24 hours after s.c. injection, doses of more than 6 mg
  blood concentration of IMP321: > 1 ng/mL
